Experimental data as given in US20030215792A1.

Target: CXCR4 receptor on cultivated primary astrocytes of rats (rat) (UniProt O08565)
Assay: cell-based or functional assay

Chain of UniProt O08565 (O08565 whole entry): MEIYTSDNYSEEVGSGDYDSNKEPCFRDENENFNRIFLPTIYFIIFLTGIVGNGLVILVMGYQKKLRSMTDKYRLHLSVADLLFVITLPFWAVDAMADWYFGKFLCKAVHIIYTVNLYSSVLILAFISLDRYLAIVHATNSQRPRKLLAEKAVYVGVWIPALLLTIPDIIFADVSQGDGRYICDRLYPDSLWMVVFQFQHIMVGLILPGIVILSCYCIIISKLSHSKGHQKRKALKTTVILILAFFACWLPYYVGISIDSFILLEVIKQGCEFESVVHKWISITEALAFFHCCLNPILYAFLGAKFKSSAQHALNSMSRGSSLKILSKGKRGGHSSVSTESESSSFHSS

decrease in intracellular calcium outflow in cultivated astrocytes after 5 minutes' pre-incubation with monoclonal antibody 12G5: 50%
Substance: SDF-1α (R&D Systems, Wiesbaden) (ligand)
